Test results taken from the RNAGym collection of RNA variant scans (doi:10.7554/elife.90254).

B1: LINE1-mini (parent)
chain: GGCAGAGCUCAACACAGCGUGGCAAAGUGGCUGUGGCUAGACUGCC

Variants of: B1
Assay: self-cleavage, relative activity (ratio to wild type); higher = more cleavage; in vitro, sequencing; the parent is a self-cleaving ribozyme

Going from GGCAGAGCUCACCACAGCGUGGCAAAGUGGCUGUGUCUAGACUGCC to GGCAGAGCUCACCACAGCGUGGCAAAGUGGCUGUGACUAGACUGCC, the self-cleavage rises from 0.03 to 0.2.

Going from GGCAGAGCUCACCACAGCGUGGCAAAGUGGCUGUGGCUAGCCUGCC to GGCAGAGCUCACCACAGCGUGGCAAAGUGGCUGUGGCUAGGCUGCC, the self-cleavage rises from 0.02 to 0.03.

GGCAGAGCUCACCACAGCGUGGCAAAGUGGCUGUGGCUAGUCUGCC and GGCAGAGCUCACCACAGCGUGGCAAAGUGGCUGUUGCUAGACUGCC are the same in self-cleavage: 0.03 for the first, 0.03 for the second.

Compared with GGCAGAGCUCACCACAGCGUGGCAAAGUGGCUGUCGCUAGACUGCC, GGCAGAGCUCACCACAGCGUGGCAAAGUGGCUGUAGCUAGACUGCC is higher in self-cleavage: 0.03 for the first, 0.04 for the second.

Compared with GGCAGAGCUCACCACAGCGUGGCAAAUUGGCUGUGGCUAGACUGCC, GGCAGAGCUCACCACAGCGUGGCAAAAUGGCUGUGGCUAGACUGCC is higher in self-cleavage: 0.02 for the first, 0.03 for the second.

Compared with GGCAGAGCUCACCACAGCGUGGCAAACUGGCUGUGGCUAGACUGCC, GGCAGAGCUCACCACAGCGUGGCAAAGUGGCUGUGGAUAGACUGCC is lower in self-cleavage: 0.03 for the first, 0.02 for the second.

GGCAGAGCUCACCACAGCGUGGCAAAGUGGCUGUGGUUAGACUGCC and GGCAGAGCUCACCACAGCGUGGCAAAGUGGCUGUGGGUAGACUGCC are the same in self-cleavage: 0.02 for the first, 0.02 for the second.

GGCAGAGCUCACCACAGCGUCGCAAAGUGGCUGUGGCUAGACUGCC and GGCAGAGCUCACCACAGCGUUGCAAAGUGGCUGUGGCUAGACUGCC are the same in self-cleavage: 0.03 for the first, 0.03 for the second.

Going from GGCAGAGCUCACCACAGCGUAGCAAAGUGGCUGUGGCUAGACUGCC to GGCAGAGCUCUACACAGCGUGGCAAAGUGGCUGUGGCUAGACUCCC, the self-cleavage rises from 0.02 to 0.03.

GGCAGAGCUCUACACAGCGUGGCAAAGUGGCUGUGGCUAGACUACC and GGCAGAGCUCUACACAGCGUGGCAAAGUGGCUGUGGCUAGACUUCC are the same in self-cleavage: 0.05 for the first, 0.05 for the second.

First: GGCAGAGCUCUACACAGCGGGGCAAAGUGGCUGUGGCUAGACUGCC
Second: GGCAGAGCUCUACACAGCGCGGCAAAGUGGCUGUGGCUAGACUGCC
The self-cleavage of the first is higher: 0.16 for the first, 0.07 for the second.

Going from GGCAGAGCUCUACACAGCGAGGCAAAGUGGCUGUGGCUAGACUGCC to GGCAGAGCUCACCACAGCGUGGCAAAGUGGCUGUGGCUAGAGUGCC, the self-cleavage falls from 0.07 to 0.02.

Compared with GGCAGAGCUCACCACAGCGUGGCAAAGUGGCUGUGGCUAGAAUGCC, GGCAGAGCUCACCACAGCGUGGCAAAGUGGCUGUGGCUAGAUUGCC is lower in self-cleavage: 0.03 for the first, 0.01 for the second.

Compared with GGCAGAGCUCACCUCAGCGUGGCAAAGUGGCUGUGGCUAGACUGCC, GGCAGAGCUCACCCCAGCGUGGCAAAGUGGCUGUGGCUAGACUGCC is lower in self-cleavage: 0.05 for the first, 0.02 for the second.

Going from GGCAGAGCUCACCGCAGCGUGGCAAAGUGGCUGUGGCUAGACUGCC to GGCAGAGCUCACCACCGCGUGGCAAAGUGGCUGUGGCUAGACUGCC, the self-cleavage falls from 0.04 to 0.03.

Going from GGCAGAGCUCACCACGGCGUGGCAAAGUGGCUGUGGCUAGACUGCC to GGCAGAGCUCACCACUGCGUGGCAAAGUGGCUGUGGCUAGACUGCC, the self-cleavage falls from 0.02 to 0.01.

Going from GGCAGAGCUCACCACAGCGUGGUAAAGUGGCUGUGGCUAGACUGCC to GGCAGAGCUCACCACAGCGUGGAAAAGUGGCUGUGGCUAGACUGCC, the self-cleavage falls from 0.08 to 0.02.

Compared with GGCAGAGCUCACCACAGCGUGGGAAAGUGGCUGUGGCUAGACUGCC, GGCAGAGCUCUACACAGCGUGGCAAAGUGGCUGUGGCUAGACCGCC is higher in self-cleavage: 0.02 for the first, 0.04 for the second.

Compared with GGCAGAGCUCUACACAGCGUGGCAAAGUGGCUGUGGCUAGACAGCC, GGCAGAGCUCUACACAGCGUGGCAAAGUGGCUGUGGCUAGACGGCC is lower in self-cleavage: 0.02 for the first, 0 for the second.

Going from GGCAGAGCUCACCACAGCGUGGCAAAGUGGCUGUGGCUUGACUGCC to GGCAGAGCUCACCACAGCGUGGCAAAGUGGCUGUGGCUGGACUGCC, the self-cleavage falls from 0.02 to 0.

Compared with GGCAGAGCUCACCACAGCGUGGCAAAGUGGCUGUGGCUCGACUGCC, GGCAGAGCUCACCACAGCGUGGCAAAGUGGUUGUGGCUAGACUGCC is lower in self-cleavage: 0.03 for the first, 0.02 for the second.

Going from GGCAGAGCUCACCACAGCGUGGCAAAGUGGGUGUGGCUAGACUGCC to GGCAGAGCUCACCACAGCGUGGCAAAGUGGAUGUGGCUAGACUGCC, the self-cleavage rises from 0.01 to 0.03.

First: GGCAGAGCUCACCACAGCGUGGCACAGUGGCUGUGGCUAGACUGCC
Second: GGCAGAGCUCACCACAGCGUGGCAGAGUGGCUGUGGCUAGACUGCC
The self-cleavage of the first is higher: 0.03 for the first, 0.02 for the second.

Going from GGCAGAGCUCACCACAGCGUGGCAUAGUGGCUGUGGCUAGACUGCC to GGCAGAGCUCACCACAGCGUGGCAACGUGGCUGUGGCUAGACUGCC, the self-cleavage rises from 0.01 to 0.02.

First: GGCAGAGCUCACCACAGCGUGGCAAGGUGGCUGUGGCUAGACUGCC
Second: GGCAGAGCUCACCACAGCGUGGCAAUGUGGCUGUGGCUAGACUGCC
The self-cleavage of the first is lower: 0.01 for the first, 0.03 for the second.

Compared with GGCAGAGCUCACCACAGCGUGGCAAAGUUGCUGUGGCUAGACUGCC, GGCAGAGCUCACCACAGCGUGGCAAAGUAGCUGUGGCUAGACUGCC is lower in self-cleavage: 0.02 for the first, 0.01 for the second.

Going from GGCAGAGCUCACCACAGCGUGGCAAAGUCGCUGUGGCUAGACUGCC to GGCAGAGCUCACCACAGCGUGGCAAAGUGGCUGUGGCUAGACUGCA, the self-cleavage rises from 0.01 to 0.02.

Compared with GGCAGAGCUCACCACAGCGUGGCAAAGUGGCUGUGGCUAGACUGCU, GGCAGAGCUCACCACAGCGUGGCAAAGUGGCUGUGGCUAGACUGCG is higher in self-cleavage: 0.02 for the first, 0.05 for the second.
